The text below walks through data of patent US20090098130A1 (published 2009).

The assay addresses glucagon-like peptide 1 receptor (GLP-1R). Briefly: cell-based or functional assay.

Non-standard residues stand in square brackets, D forms with d. No end group written: not given here. Aib = CC(C)(N)C(=O)O

H[Aib]EGTFTSDLSKQLEEEAVRLAIEFLKNGGPSSGAPPPS [GA targeting peptide of SEQ ID NO: 10]: the “EC50 (µM), glucose-stimulated insulin secretion (GSIS) assay on pancreatic β cell cultures” value was less than 10 µM.

For H[Aib]EGTFTSDLSKQLEEEAVRLAIEFLKN [GA targeting peptide of SEQ ID NO: 9], the “EC50 (µM), glucose-stimulated insulin secretion (GSIS) assay on pancreatic β cell cultures” value is less than 10 µM.
